Results on 1 substance are retold here after patent publication US7034007.

In general, Kd refers to the free concentration of one partner at which half of the binding sites on the other are occupied at equilibrium, for simple one-to-one binding. A lower Kd goes with a tighter complex.

The target in assay [1] is B2 bradykinin receptor (rabbit airway smooth muscle membranes) (rabbit) (UniProt Q28642). The assay can be described thus: radioligand binding, airway smooth muscle membranes of allergic rabbits treated with adenosine A1 receptor antisense oligo, 20 mg total.
UniProt Q28642, sequence (Q28642 whole entry): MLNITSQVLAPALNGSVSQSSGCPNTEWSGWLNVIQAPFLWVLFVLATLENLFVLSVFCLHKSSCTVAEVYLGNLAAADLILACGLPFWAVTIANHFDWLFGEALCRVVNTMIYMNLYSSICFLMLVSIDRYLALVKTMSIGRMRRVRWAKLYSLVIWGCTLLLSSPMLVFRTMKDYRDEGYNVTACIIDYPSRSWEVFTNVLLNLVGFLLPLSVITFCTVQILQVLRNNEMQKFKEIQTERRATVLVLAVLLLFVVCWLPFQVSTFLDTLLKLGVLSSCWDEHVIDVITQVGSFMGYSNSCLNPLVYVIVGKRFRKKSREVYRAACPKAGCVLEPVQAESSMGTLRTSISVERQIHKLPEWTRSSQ
The target is the same in assay [2]. Description: radioligand binding, airway smooth muscle membranes of allergic rabbits treated with adenosine A1 receptor antisense oligo, 2 mg total.
Assay [3] has the same target. Description: radioligand binding, airway smooth muscle membranes of saline-treated control allergic rabbits.
The target is the same in assay [4]. The assay can be described thus: radioligand binding, airway smooth muscle membranes of allergic rabbits treated with B2MM mismatch oligo, 2 mg total.
Assay [5] shares this target. The assay can be described thus: radioligand binding, airway smooth muscle membranes of allergic rabbits treated with B2MM mismatch oligo, 0.2 mg total.
Assay [6] shares this target. Description: radioligand binding, airway smooth muscle membranes of allergic rabbits treated with A1MM1 mismatch control oligo, 2 mg total.
Assay [7] has the same target. Description: radioligand binding, airway smooth muscle membranes of allergic rabbits treated with B2A bradykinin receptor antisense oligo, 20 mg total.
Assay [8] shares this target. Description: radioligand binding, airway smooth muscle membranes of allergic rabbits treated with B2A bradykinin receptor antisense oligo, 2 mg total.
For assay [9] the target is unchanged. Description: radioligand binding, airway smooth muscle membranes of allergic rabbits treated with A1MM1 mismatch control oligo, 20 mg total.
For assay [10] the target is unchanged. The assay can be described thus: radioligand binding, airway smooth muscle membranes of allergic rabbits treated with B2MM mismatch oligo, 20 mg total.
Assay [11] shares this target. The assay can be described thus: radioligand binding, airway smooth muscle membranes of allergic rabbits treated with B2A bradykinin receptor antisense oligo, 0.2 mg total.
The target is the same in assay [12]. Description: radioligand binding, airway smooth muscle membranes of allergic rabbits treated with adenosine A1 receptor antisense oligo, 0.2 mg total.

Turning to [3H]NPC 17731 (peptide), the Bmax in [1] came to 14.8 fmol; in assay [2], 15.5 fmol; in [3] it was 14.2 fmol; in assay [4], 14.8 fmol; in assay [5], 15.1 fmol; in [6], 14.6 fmol. For the same substance, the Bmax was determined as 8.7 fmol in assay [7]; 11.9 fmol in assay [8]; 14 fmol in assay [9]; 14 fmol in assay [10]; 15.1 fmol in assay [11]; 15 fmol in [12]. The Kd in assay [1] worked out at 390 pM; in assay [2] it was 410 pM; in [3], 390 pM; in assay [4] it was 370 pM; in assay [5], 360 pM; in assay [6] it was 380 pM. For the same substance, the Kd amounted to 380 pM in assay [7]; 340 pM in assay [8]; 350 pM in assay [9]; 410 pM in assay [10]; 350 pM in assay [11]; 340 pM in assay [12].
